Test results from the DeepSol protein solubility set.

Test: soluble on expression in E. coli; label from the status in PepcDB or PDB records

| Sequence | soluble on expression in E. coli |
| --- | --- |
| MKRSAFFISDGTGITAETLGQSLLAQFENITFNKFTRPYIDSVEKARAMVQQINNAADKDDVRPIIFDTIVNQDIREILATSNGFMIDIFSTFLAPLEQELSSHSSYSVGKSHSIGHNSNYMERIEAVNFALDNDDGARTHYYDKADIILVGVSRCGKTPTCLYMAMQFGIRAANYPLTEDDMERLQLPPALKQHREKLFGLTIDPDRLTAIRHERKPNSRYSSYAQCEFEVREVESLFRRENIPNINSTHFSVEEISAKVLVEKGVERRFKLEHHHHHH | not soluble |
| MKSHKMMGGGISMHYITACLKIISDKDLNEIMKEFKKLEEETNKEEGCITFHAYPLEPSERKIMLWEIWENEEAVKIHFTKKHTIDVQKQELTEVEWLMKSNVND | soluble |
| MKSLIIVNPADCIGCRTCEVACVVAHPSEQELNADVFLPRLKVQRLDSISAPVMCHQCENAPCVGACPVGALTMGEQVVQTNSARCIGCQSCVSACPFGMITIQSLPGDTRQQIVKCDLCEQREEGPACVESCPTQALQLLTERELRRVRQQRIVASGENPL | not soluble |
| MKTAIVTDSTAYLPKEVRERLGIRLIPLSVIFGNETYREEIDMTADEFFAKIKQHPTLPTTSQPSVGEFVDLFTAIREEGYEAVVSIHLSSGISGTYQGAVTAGTMVDGLRVYAYDSEISCMAQGFYAIEAAEMAQAGRSPEDIIARLDEMKQTLRAYFMVDDLAHLQRGGRLTGAQAFIGGLLQIKPLLRFENKVIVPFEKIRTRKKAIHRIEELFAEDAEKGVPLKAAIIHANQPDEAHRWRDELSARYPHVEFSISYFGPVIATHVGEGALGLTWYQP | soluble |
| MKTAQEFRAGQVANINGAPWVIQKAEFNKSGRNAAVVKMKLKNLLTGAGTETVFKADDKLEPIILDRKEVTYSYFADPLYVFMDSEFNQYEIEKDDLEGVLTFIEDGMTDICEAVFYNDKVISVELPTTIVRQIAYTEPAVRGDTSGKVMKTARLNNGAELQVSAFCEIGDSIEIDTRTGEYKSRVKA | not soluble |
| MKTFESLFAELSEKAQTRPEGSLTVDELDKGTHFIGKKIIEEAGETWMAAEYEGADRTAEEMSQLLYHVQVMMIKHGLTLEDVYKHL | soluble |
| MKTIEEIKSTPKTVMKKPELLAPAGNLEKLKIAVHYGADAVFLGGQEYGLRSNADNFTMEEIAEGVEFANRYGAKIYVTTNIIAHDENIEGLESYLRNLEKTGATGIIVADPLIIETCKEVAPKLEIHLSTQQSLSNYKAVEYWKEEGLDRVVLARETGAMEMREMKEKVDIEIEAFIHGAMCIAYSGRCTLSNHMTARDSNRGGCCQSCRWDYELLEVDDNGELDVFYNQGEVTPFAMSPKDLKLIESIPQMMDIGVDSLKIEGRMKSIHYIATVVSVYRKVIDAYAADPDNFKINPEWLIELDKCANRDTAPAFFEGTPGYEEQMFGQQQSKKSSFDFCGLVLDYNEDTKIATIQQRNNFKPGQEIEFFGPEIETFTQVVEAIYDEEGNSLDAARHPLQIVQIKVDRPIYPNNMMRKEIG | not soluble |
| MKTIGLIGGMSWESTTSYYQLINETIKKELGGLHSAKILLYSVDFAEIEHYQASDDWAKSAEVLSQIAQKLEQAGADFIVICTNTMHKVAPQIQKQIAIPILHIAQATAEAILENGIQKV | not soluble |
| MKTKSPALSGKLTDTELRTLRIFMAVVHYSGFTPAALELNVSRSAVSIAMADLEKRLSLRLCERGRAGFSLTTEGREVYRSTRQLFSALDQFRIQINAIHFNLKGELNIGITDNLVTMPQMRITSALRELNRLGPDVQINIQMIPPNEIISGVLDGQLHTGVIPVQKHYEGLEYLLLYEERSSLYCGQEHELFCRHDSELSPSMLKQYNGVLPAYDQTSEIKALHHELQLSASATDREGVAFLILTGRYIGYLPDHYAHRWVKEGVMRAILPANMSYLTPFATITKKGAPSNLVLENYLEQLKLASTTAGG | not soluble |
| MKTKVICLVRVSTQDQDYQRQISDLTKYSQARDFVIVDFISEKVSGTKRNEERNGIQELLKRARKKEFQKVIVQEISRLGRNPFQVQRVIEELAELSISVVVQNMNLETLDEGGNRNGFIDLMLSTAVHFSSIERSWIVNRIRSGQKNSKKKIGRPFNTFESKEAVLKKYAAVVRDLKSGISIRKVAKLNDLSTPTIQRVKKLMQEL | not soluble |
| MKTLLPTSTAGSLPKPSWLAEPEKLWSPWKLQGEELIDGKRDALRVALQEQELAGVDIVSDGEQTRQHFVTTFIEHLSGVDFENRKTVTIRNRYEASVPTVVGPVSRTKPVFVEDAKFLRQQTKQPIKWALPGPMTMIDTLYDDHYGSREKLAWEFAKILNQEAKELEAAGVDIIQFDEPAFNVFFDDVNEWGIACLERAIEGLKCETAVHICYGYGIKANTDWKQTLGTEWRQYEEVFPKLQQSNIDIISLECHNSRVPIELLELIRGKKVMVGAIDVATNEIETPEEVANTLREALKYVDADKLYPCTNCGMAPLSREVSTAKLNALSAGAEIVRRELSALEHHHHHH | not soluble |
| MKTLSTMATLLALSLPVMAQECASDIMRTAPNLRYVYSTQGTVKDLHTGLTWMRCTFGKEWNAEQGRCTGQAQPLRWQAALQEVQAINHPGSRHRLHQFAGVKQWRMPNIKELSSLTEQACFAPAANETAFASGLVTEVGNYAAYLWSNTTRIEREEAWTWDAINGEIYAYSIHAHEMGLLLVADELEHHHHHH | soluble |
| MKTRTQQIEELQKEWTQPRWEGITRPYSAEDVVKLRGSVNPECTLAQLGAAKMWRLLHGESKKGYINSLGALTGGQALQQAKAGIEAVYLSGWQVAADANLAASMYPDQSLYPANSVPAVVERINNTFRRADQIQWSAGIEPGDPRYVDYFLPIVADAEAGFGGVLNAFELMKAMIEAGAAAVHFEDQLASVKKCGHMGGKVLVPTQEAIQKLVAARLCADVTGVPTLLVARTDADAADLITSDCDPYDSEFITGERTSEGFFRTHAGIEQAISRGLAYAPYADLVWCETSTPDLELARRFAQAIHAKYPGKLLAYNCSPSFNWQKNLDDKTIASFQQQLSDMGYKFQFITLAGIHSMWFNMFDLANAYAQGEGMKHYVEKVQQPEFAAAKDGYTFVSHQQEVGTGYFDKVTTIIQGGTSSVTALTGSTEESQF | soluble |
| MKVAAKKLATSRMRKDRAAAASPSSDIENSENPSSLASHSSSSGRMTPSKNTRSRKGVSVKDVSNHKITEFFQVRRSNRKTSKQISDEAKHALRDTVLKGTNERLLEVYKDVVKGRGIRTKVNFEKGDFVVEYRGVMMEYSEAKVIEEQYSNDEEIGSYMYFFEHNNKKWCIDATKESPWKGRLINHSVLRPNLKTKVVEIDGSHHLILVARRQIAQGEELLYDYGDRSAETIAKNPWLVNT | not soluble |
| MKVAVLGATGKEGQLLLAEAKRRGMDVTAIVRNASKITDGTPTIEKDVYQLTTEDIQAFDVLISALGFPDVQDFPKSTQHLIEILTNQKTRLFVVGGAGTLYVDPEHTTQLKDTPSFPAEIQPLASAMGEALNLLKEAQNIHWTYISPAAMFDADGPATGHYEVAGEELTTNSQGDSYISYADYAVAMLDEVESNAHPNQRISVYQLEHHHHHH | soluble |
| MKVDGRRPEDEVIRETNAHGVSVVHIKKDPTTQKVEIVKNSIFNRRITASTVMEFAGAAAGSSLLATRFSPAGRQTRGTHNNCGNGYTPWGTYLTTEENFIGYFQRSGSDEYARTDAEKIALKRYGLGVKKDEPYLYEKDEKGAPKKDKDGKIIYLKDKNGELIPNVDEQGRQIYLGTSSRYGWETAIGQVESQDLYDRWNADVKAAQATQDYRNGPNTFGWMVEIDPFDGRQNPVKRTSLGRFAHEDSACRAVVGQPLAFYMGDDSRGEYIYKFVSTAVWDTKDINGGYTAGDKYMNAGKLYVAKFNNDGSGQWIELAYGKNGLNESNTTYPFKSQADVVTFARLAADSVGATKMDRPEWCTVNPVNGEIYVTLTNNSNRGKDYATDAANPRNYTDLYAGTKEQKGNVNGHIIRFKETDDKTTAETFKWDIYLFGAEASMASNINLSGLTDNNDFSSPDGMWFDPRGVLWIETDDGAYTDVTNCMMLAALPGQIGDGGTATTSNGQQTITGAKVTDATLRRFLVGPKQCEITGIAMTPDYKAIFINVQHPGEDSPSYAKPESNWPATQKDPSNKTARPRSATVVITRKDGGVIAGLEHHHHHH | soluble |
| MKVDVDEKTYIITMANDITKLYEENKRNLHYSITDPLTGAYNRKYLNDRFDIFIGDYIVLIDLDNFKMINDYEGHNVGDKILCDFVSLLNKELINSTSIIRLGGDEFIVIFSSDVDKNYVYSQLEALRENFLKVFSKYKYLSFSYGVDTVKRNLKLTIVELDKKMYKNKEKLEHHHHHH | not soluble |
| MKVEEQYLQLFRENREAIDSHSPRVLNEQREKASMAFASKGLPRYGTENYQRTDLSELFGYDYGVNLNRVNFPIRQKEAFHCTLPDLDTDLCYIVNDAYDNEWSRVSELPEGAFVGSLSDFALSHPEIAARYYAQAAAPDHDGIIAFSTMFAQDGFIIYLPDGAVLKNPIQLVQLLRADMEIL | not soluble |
| MKVEIEPQTLRYQPKEIRETKRPTIAYEHPNALTYLKSMKENIIRFANKKSLYTQHDEYIKNVFMDERVNLKYHCESIVSYIAEAFIHYSVWDHSHAYYPGRPSQQTARTDALEGTSRTLPTLAAWLHANGRSNTIITGLNQQPILVPEILRKAFLAGTNPQHKGYWGTLHHCDQRVCEGADLALALWMSKEWVWDCFSIDEKCQIITWFKQVNQCETVDNNWHLFVLTVQIVLKALTGEDEVQYDKYERVKEFYVGDGWFRDGAKGNYDYYNAWAFHYSLYWFTQIDVDFDSTFINNALSDFVGNYRYFFGKEGFPFFGRSACYRLAAAAPLLAAVDLQSDKITIGEAKRAFHCNLKYFISNGALKAGLPTQGLFDEDVRLVDNYSGPASSLWSLRALNIALFCGEKINLWQAEEAPLAIEQGNFELDISAINMKILGVYETQEVIAIFKNEYTQDQSPLSRRLLAPSRWEQTIEKITGRANRPKNNLLRKGITCYSSKMESFFLEHHHHHH | not soluble |
| MKVRRTEQIYLKENDTISYMCHLSKNLYNQVNYILRQQFLKGEKLTGYRDLVKLFQEPSEIEDHNNYQRLPAQTAQWTVKKTVMAWYSFFKSMKAWKKHPDKFKGRPRLPGYKETDGEFLLVFTNQQCRIRDGILKFPKIMNMEVKTRLNENEIKLKEVRIVPQGTGYMIEIVYEKETADMPITKPKRAMGIDIGVRNLVTIGNNIHEIGIAVKAGLLKSINQYFNKELARYRSINDLQGNERKQTVKIRKLFMKRNRKVKDIMHKVSKSIVEYAKIMNIDTIVIGHNNRWKDSSNMGKKNNQNFVQLPFNMLIYQIKYKAEEIGITVIMQNEDYTSKCSFLDNESIEHHDTYMGKRIHRGIFRSATGKLIHADLQSSYNIIKKAIPEAFANGIEGIGLYPRSLSIRQMITSKGGCLEHHHHHH | not soluble |
| MKVTFMNLEERKKLETKSIDELDLIGKKVCVDTCVVIDGRITELIERGKLKDATIIIPEAVVSELEYQANMGREIGYKGIEELRKLIEKASEHNIKVEYYGERPTREEIFLAKSGEIDAMIRKVAKETNSILLTSDWIQYNLAKAQGIEAYFLEAAEEEVELVLD | not soluble |
| MKVTKADIVISAVKPEQYPDGDLPEIALAGRSNVGKSSFINKILNRKKLVRISSKPGKTQTLNFFLINEMMHFVDVPGYGYAKVSKTERAAWGKMIETYFTTREQLDAAVLVVDLRHKPTNDDVMMYDFLKHYDIPTIIIATKADKIPKGKWQKHLKVVKETLDIESGDEVVLFSSETGLGKEEAWKAIHKFTKTKNA | not soluble |
| MKVTSLDGRQLRKMLRKEAAARCVVLDCRPYLAFAASNVRGSLNVNLNSVVLRRARGGAVSARYVLPDEAARARLLQEGGGGVAAVVVLDQGSRHWQKLREESAARVVLTSLLACLPAGPRVYFLKGGYETFYSEYPECCVDVKPISQEKIESERALISQCGKPVVNVSYRPAYDQGGPVEI | not soluble |
